Test [1] has as its target T1, N-terminal HIS-tagged human CD83 stably expressed on CHO cells (CHO-hCD83) (human, UniProt Q01151 20-205).
T1 construct: also called CHO cells expressing human CD83; not shown: N-terminal HIS tag
T1 sequence: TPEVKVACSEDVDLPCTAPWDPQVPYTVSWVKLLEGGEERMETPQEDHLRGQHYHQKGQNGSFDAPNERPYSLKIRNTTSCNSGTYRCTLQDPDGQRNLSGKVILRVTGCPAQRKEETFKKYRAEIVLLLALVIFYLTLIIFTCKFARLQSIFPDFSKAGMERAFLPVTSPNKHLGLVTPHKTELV
The test can be described thus: flow cytometry on CHO-hCD83 cells, anti-hamster IgG secondary. As to the method: (§1) The generated antibodies were assayed for their ability to bind human CD83 or mouse CD83 stably expressed on CHO cells. To generate an expression vector for the production of the stable cell lines, a DNA fragment encoding an N-terminal HIS-tagged human CD83 (hCD83) or an N-terminal HIS-tagged mouse CD83 (mCD83) was cloned into the neomycin-resistance plasmid, pRKneo (Crowley et al., Proc Natl Acad Sci USA., 90(11):5021-5025, 1993), at the XbaI and XhoI sites to produce hCD83.pRKneo or mCD83.pRKneo, respectively. CHO cells were transfected with hCD83.pRKneo or mCD83.pRKneo using Fugene (Roche) and the top 10% of CD83 positive cells were sorted by FACS then selected with G418 ([…]; GIBCO) to generate the stable CHO-hCD83 or CHO-mCD83 cell line, respectively. CHO-hCD83 and CHO-mCD83 cells were resuspended in a FACS buffer containing PBS/2% BSA/2 mM EDTA and incubated with anti-human CD83 antibodies or anti-mouse CD83 antibodies for 30 minutes on ice. Cells were washed with FACS buffer and then incubated with a fluorochrome conjugated anti-hamster IgG secondary antibody for 30 minutes on ice in the dark. Cells were washed with FACS buffer and analyzed by flow cytometry on a LSR II flow cytometer using FACSDiva software (Becton Dickinson). Data analysis and construction of diagrams was done using FlowJo v.9.4.11.
Background: Flow cytometry measures light scatter and fluorescence of single cells or particles in a stream.

The target of test [2] is T2, N-terminal HIS-tagged mouse CD83 stably expressed on CHO cells (CHO-mCD83) (mouse, UniProt O88324 22-196).
T2 construct: whole, on cells; also called CHO cells expressing mouse CD83; not shown: N-terminal HIS tag
T2 sequence (looked up): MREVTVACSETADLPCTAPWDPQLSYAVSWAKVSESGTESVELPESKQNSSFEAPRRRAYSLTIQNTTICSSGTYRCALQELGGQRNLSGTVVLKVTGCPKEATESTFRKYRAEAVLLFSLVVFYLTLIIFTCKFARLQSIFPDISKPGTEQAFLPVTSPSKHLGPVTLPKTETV
The test can be described thus: flow cytometry on CHO-mCD83 cells, anti-hamster IgG secondary. As to the method:
as §1

B1: anti-CD83 antibody 60B10 (antibody, V domains shown)
VH: QVQLKESGPGLVKPSQSLSLTCSVTGFSITTGGYWWTWIRQFPGQKLEWMGYIFSSGNTNYNPSIKSRISITRDTSKNQFFLQLNSVTTEGDTARYYCARAYGKLGFDYWGQGTLVTVSS
VL: QPVLTQSPSASASLGNSVKITCTLSSQHSTYTIGWYQQHPDKAPKYVMYVNSDGSHSKGDGIPDRFSGSSSGAHRYLSISNIQPEDEADYFCGSSDSSGYVFGSGTQLTVL
notes: also called 60B10 Anti-human CD83
As for B1, the binding result in test [1] and in test [2] was “binds” in each case.

B2: anti-CD83 antibody 42C6 (antibody, V domains shown)
VH: QVQLKESGPGLVKPSQSMSLTCSVNGFSITSRYWWTWIRQFPGKNLEWMGYISYSGGTSYNPSLKSRISITRDTSKNQFFLHLNSVTTADTATYYCARDLYGTYFDYWGQGTMVTVSS
VL: QYELIQPKSVSESLGRTVTISCKRSSGNIGNNYVHWYQQHFGSSPKTVIYDDNKRPSGVPHRFSGSIDSSSNSASLTITDLQIEDEAEYYCQSAWVFGSGTKVTVL
notes: also called 42C6 Anti-mouse CD83
In the case of B2, the values for the binding result in test [1] and in test [2] were “no binding” and “binds”, respectively.

B3: anti-CD83 antibody 39A2 (antibody, V domains shown)
VH: QVQLKESGPGLVKPSQSMSLTCSVNGFSITSRYWWTWIRQFPGKNLEWMGYISYSGGTSYNPSLKSRISITRDTSKNQFFLHLNSVTTADTATYYCARDLYGTYFDYWGQGTLVTVSS
VL: QYELIQPKSVSESLGRTVTISCKRSSGNIGNNYVHWYQQHFGSSPKTVIYDDNKRPSGVPHRFSGSIDSSSNSASLTITDLQIEDEAEYYCQSAWVFGSGTKVTVL
notes: also called 39A2 Anti-mouse CD83
For B3, the binding result in test [1] is “no binding”; in test [2], “binds”.

These data come from patent publication US20140286950A1 (Genentech, published 2014).
